Measured values: patent publication US20220411514A1, “ANTI-GAL3 ANTIBODIES AND METHODS OF USE FOR INSULIN RESISTANCE” (TrueBinding, Inc., priority 2021, published 2022)

B1: 20H5.A3-VH3VL1: anti-Gal3 antibody, VH SEQ ID NO: 814, VL SEQ ID NO: 829 (antibody, V domains shown)
VH: QIQLVQSGSELKKPGASVKVSCKASGYAFTTYGMSWVRQAPGQGLEWMGWVNTYSGVPTYADDFTGRFVFSLETSVSTAYLQISSLKAEDTAVYFCARGPYAMDYWGQGTLVTVSS
VL: DIQMTQSPSSLSASVGDRVTITCQASQDISNYLNWYQQKPGKAPKLLIYYTSSLLTGVPSRFSGSGSGTDYTFTISSLQPEDIATYYCQQYSKLPYTFGQGTKLEIK
modifications: VH-88 Peptide Sequence; VL-86 Peptide Sequence
B2: 20H5.A3-VH5VL3: anti-Gal3 antibody, VH SEQ ID NO: 818, VL SEQ ID NO: 833 (antibody, V domains shown)
VH: QVQLVQSGFELKKPGASVKISCKASGYAFTTYGMSWVRQAPGQGLEWMGWVNTYSGVPTYAQAFTGRFVFSLDTSVSTAYLQISSLKAEDTAVYYCARGPYAMDYWGQGTLVTVSS
VL: DIQMTQSPSSLSASVGDRVTITCRASQDISNYLNWYQQKPGKAPKLLIYYTSSLLSGVPSRFSGSGSGTDYTLTISSLQPEDFATYYCQQYSKLPYTFGQGTKLEIK
modifications: VH-92 Peptide Sequence; VL-90 Peptide Sequence
B3: 20H5.A3-VH6VL3: anti-Gal3 antibody, VH SEQ ID NO: 820, VL SEQ ID NO: 835 (antibody, V domains shown)
VH: QVQLVQSGFELKKPGASVKISCKASGYAFTTYGMSWVRQAPGQGLEWMGWVNTYSGVPTSAQAFTGRFVFSLDTSVSTAYLQISSLKAEDTAVYYCARGPYAMDYWGQGTLVTVSS
VL: DIQMTQSPSSLSASVGDRVTITCRASQDISNYLNWYQQKPGKAPKLLIYYTSSLLSGVPSRFSGSGSGTDYTLTISSLQPEDFATYYCQQYSKLPYTFGQGTKLEIK
modifications: VH-94 Peptide Sequence; VL-92 Peptide Sequence
B4: 20H5.A3-VH6VL1: anti-Gal3 antibody, VH SEQ ID NO: 819, VL SEQ ID NO: 834 (antibody, V domains shown)
VH: QVQLVQSGFELKKPGASVKISCKASGYAFTTYGMSWVRQAPGQGLEWMGWVNTYSGVPTSAQAFTGRFVFSLDTSVSTAYLQISSLKAEDTAVYYCARGPYAMDYWGQGTLVTVSS
VL: DIQMTQSPSSLSASVGDRVTITCQASQDISNYLNWYQQKPGKAPKLLIYYTSSLLTGVPSRFSGSGSGTDYTFTISSLQPEDIATYYCQQYSKLPYTFGQGTKLEIK
modifications: VH-93 Peptide Sequence; VL-91 Peptide Sequence
B5: 20H5.A3-VH3VL3: anti-Gal3 antibody, VH SEQ ID NO: 815, VL SEQ ID NO: 830 (antibody, V domains shown)
VH: QIQLVQSGSELKKPGASVKVSCKASGYAFTTYGMSWVRQAPGQGLEWMGWVNTYSGVPTYADDFTGRFVFSLETSVSTAYLQISSLKAEDTAVYFCARGPYAMDYWGQGTLVTVSS
VL: DIQMTQSPSSLSASVGDRVTITCRASQDISNYLNWYQQKPGKAPKLLIYYTSSLLSGVPSRFSGSGSGTDYTLTISSLQPEDFATYYCQQYSKLPYTFGQGTKLEIK
modifications: VH-89 Peptide Sequence; VL-87 Peptide Sequence
B6: 20H5.A3-VH4VL1: anti-Gal3 antibody, VH SEQ ID NO: 816, VL SEQ ID NO: 831 (antibody, V domains shown)
VH: QIQLVQSGSELKKPGASVKVSCKASGYAFTTYGMSWVRQAPGQGLEWMGWVNTYSGVPTSADDFTGRFVFSLETSVSTAYLQISSLKAEDTAVYFCARGPYAMDYWGQGTLVTVSS
VL: DIQMTQSPSSLSASVGDRVTITCQASQDISNYLNWYQQKPGKAPKLLIYYTSSLLTGVPSRFSGSGSGTDYTFTISSLQPEDIATYYCQQYSKLPYTFGQGTKLEIK
modifications: VH-90 Peptide Sequence; VL-88 Peptide Sequence
B7: 20H5.A3-VH5VL1: anti-Gal3 antibody, VH SEQ ID NO: 817, VL SEQ ID NO: 832 (antibody, V domains shown)
VH: QVQLVQSGFELKKPGASVKISCKASGYAFTTYGMSWVRQAPGQGLEWMGWVNTYSGVPTYAQAFTGRFVFSLDTSVSTAYLQISSLKAEDTAVYYCARGPYAMDYWGQGTLVTVSS
VL: DIQMTQSPSSLSASVGDRVTITCQASQDISNYLNWYQQKPGKAPKLLIYYTSSLLTGVPSRFSGSGSGTDYTFTISSLQPEDIATYYCQQYSKLPYTFGQGTKLEIK
modifications: VH-91 Peptide Sequence; VL-89 Peptide Sequence
B8: 2D10-hVH3-HVL2: anti-Gal3 antibody, VH SEQ ID NO: 811, VL SEQ ID NO: 826 (antibody, V domains shown)
VH: QVQLVQSGAEVKKPGASVKVSCKASGYTFTDYYINWVRQAPGQRLEWMGWIYPGSQDTKYSQKFQGRVTITVDTSASTAYMELSSLRSEDTAVYYCANYFGSSGWFFDVWGQGTMVTVSS
VL: DIVMTQSPLSLPVTPGEPASISCRSSKSLLHSDGITYLYWYLQKPGQSPQLLIYRMSNLASGVPDRFSGSGSGTDFTLKISRVEAEDVGVYYCAQMIEFPLTFGQGTKLEIK
modifications: VH-85 Peptide Sequence; VL-83 Peptide Sequence
B9: 2D10-hVH3-HVL3: anti-Gal3 antibody, VH SEQ ID NO: 812, VL SEQ ID NO: 827 (antibody, V domains shown)
VH: QVQLVQSGAEVKKPGASVKVSCKASGYTFTDYYINWVRQAPGQRLEWMGWIYPGSQDTKYSQKFQGRVTITVDTSASTAYMELSSLRSEDTAVYYCANYFGSSGWFFDVWGQGTMVTVSS
VL: DVVMTQSPLSLPVTLGQPASISCRSSKSLLHSDGITYLYWYQQRPGQSPRLLIYRMSNRDSGVPDRFSGSGSGTDFTLKISRVEAEDVGVYYCAQMIEFPLTFGQGTKLEIK
modifications: VH-86 Peptide Sequence; VL-84 Peptide Sequence
B10: 2D10-hVH3-HVL4: anti-Gal3 antibody, VH SEQ ID NO: 813, VL SEQ ID NO: 828 (antibody, V domains shown)
VH: QVQLVQSGAEVKKPGASVKVSCKASGYTFTDYYINWVRQAPGQRLEWMGWIYPGSQDTKYSQKFQGRVTITVDTSASTAYMELSSLRSEDTAVYYCANYFGSSGWFFDVWGQGTMVTVSS
VL: DIVMTQSPLSLPVTLGQPASISCRSSKSLLHSDGITYLYWYQQRPGQSPQLLIYRMSNLDSGVPDRFSGSGSGTDFTLKISRVEAEDVGVYYCAQMIEFPLTFGQGTKLEIK
modifications: VH-87 Peptide Sequence; VL-85 Peptide Sequence

Tested on: GLUT4 translocation in L6 GLUT4myc myoblasts
Assay: Insulin-stimulated GLUT4 translocation with Gal3 and anti-Gal3 antibody
Type: cell-based, rat
Details: 30 μg/mL Gal3 pre-incubated with 60 μg/mL antibody, 100 nM insulin
Experimental: Rat L6 GLUT4myc myoblasts (Kerafast #ESK202-FP) express a Myc-tagged GLUT4 that can be detected with an anti-Myc antibody. These cells were grown in a 48-well plate in MEM u growth media (Gibco, #12-571-063)+10% fetal bovine serum (FBS; Corning #35-016-CV) until 90-95% confluence was reached. Cells were then washed in PBS and serum starved for 2 hours in MEM u growth media without FBS. Thirty (30) μg/mL recombinant human Gal3 (TrueBinding QCB200347) was pre-incubated with 60 μg/mL anti-Gal3 antibodies for 30 minutes before being added to the serum-starved cells for 1 hour at 37° C. At the end of incubation, half of the cells were treated with 100 nM insulin (Sigma-Aldrich #I5523-50MG) for 20 minutes while the other half acted as basal controls. After 20 minutes, cells were washed quickly with ice cold PBS twice, then incubated with 4% paraformaldehyde (Boster Bio #AR1068) for 10 minutes on ice followed by 10 minutes at room temperature. The cells were washed three times with PBS, then blocked with 0.5 mL 5% goat serum (Vector Laboratories #101098-382) in PBS for 15 minutes. After the blocking agent was aspirated from the cells, 1 μg/ml anti-Myc polyclonal antibody (Sigma-Aldrich #C-3956) in 5% goat serum was added for 1 hour. […] Primary antibody was aspirated away, and then cells washed 5 times with PBS. Next, cells (including background controls) were incubated with 1:1000 goat anti rabbit antibody secondary antibody (Abcam #Ab97051) in 5% Goat serum for 30 minutes at room temperature. After washing, cells were incubated with 400 μL of TMB (Thermo Scientific #PI34029) for 5 minutes, then 200 μL of 1N HCL (Avantor Performance #JT5620-2) was added to stop the reaction. 100 μL of the sample was transferred to a 96 well plate with duplicates transferred for each condition. Samples were read at 450 nm on a SpectraMax plate reader. […] The fold changes were plotted on GraphPad Prism and presented as mean (SEM) of the technical replicates. Statistical significance was determined using unpaired T-tests comparing samples treated with Gal3 and insulin with all other conditions.

Molecule | effect on Gal3 block of insulin-stimulated GLUT4 translocation
B1 | reduce the ability of Gal3 to block insulin-dependent GLUT4 translocation
B2 | reduce the ability of Gal3 to block insulin-dependent GLUT4 translocation
B3 | reduce the ability of Gal3 to block insulin-dependent GLUT4 translocation
B4 | reduce the ability of Gal3 to block insulin-dependent GLUT4 translocation
B5 | reduce the ability of Gal3 to block insulin-dependent GLUT4 translocation
B6 | reduce the ability of Gal3 to block insulin-dependent GLUT4 translocation
B7 | reduce the ability of Gal3 to block insulin-dependent GLUT4 translocation
B8 | reduce the ability of Gal3 to block GLUT4 translocation
B9 | reduce the ability of Gal3 to block GLUT4 translocation
B10 | reduce the ability of Gal3 to block GLUT4 translocation
